14 variants from PMC7801473 (2021) can be followed below.

First the molecules themselves.
B1: ASC^CARD (M2H fusion) [human] / NLRP1^CARD (M2H fusion) [human] (parent complex)
chain 1: AAKPGLHFIDQHRAALIARVTNVEWLLDALYGKVLTDEQYQAVRAEPTNPSKMRKLFSFTPAWNWTCKDLLLQALRESQSYLVEDLERS
chain 2: DAPQLLHFVDQYREQLIARVTSVEVVLDKLHGQVLSQEQYERVLAENTRPSQMRKLFSLSQSWDRKCKDGLYQALKETHPHLIMELWEKG
B2: NLRP1^CARD (M2H fusion) [human] / ASC^CARD (M2H fusion) [human] (parent complex)
chain 1: B1 chain 2
chain 2: B1 chain 1

One assay covers variants of B1. In words: M2H (mammalian two-hybrid, luciferase); HEK293T cells; GAL(DBD)-NLRP1^CARD with VP16-ASC^CARD; luciferase normalized to Renilla; parent: 2.1; read off a plot.
In the case of chain 1 AAKPGLHFIDQHRAALIARVTNVEWLLDALYGKVLTAAQYQAVRAEPTNPSKMRKLFSFTPAWNWTCKDLLLQALRESQSYLVEDLERS [chain 1 D37A, chain 1 E38A], the response is ~1.4 fold of negative control.
Consider chain 1 AAKPGLHFIDQHRAALIARVTAVRWLLDALYGKVLTDEQYQAVRAEPTNPSKMRKLFSFTPAWNWTCKDLLLQALRESQSYLVEDLERS [chain 1 N22A, chain 1 E24R], for which the response was ~0.8 fold of negative control.
Turning to chain 1 AAKPGLHFIDQHDAALIARVTNVEWLLDALYGKVLTDEQYQAVRAEPTNPSKMRKLFSFTPAWNWTCKDLLLQALRESQSYLVEDLERS [chain 1 R13D], the response is ~0.57 fold of negative control.
Take chain 1 AAKPGLHFIDQHRAALIARVTNVEWLLKALYGKVLTDEQYQAVRAEPTNPSKMRKLFSFTPAWNWTCKDLLLQALRESQSYLVEDLERS [chain 1 D28K]: the response was ~0.78 fold of negative control.
Turning to chain 1 AAKPGLHFIDQHRAALIARVTNVEWLLDALYGKVLTDEQYQAVRAEPTNPSKMEKLFSFTPAWNWTCKDLLLQALRESQSYLVEDLERS [chain 1 R54E], the response was ~0.87 fold of negative control.
On the same count and under the same terms, under chain 1 AAKPGLHFIDQHRAALIAAVANVEWLLDALYGKVLTDEQYQAVRAEPTNPSKMRKLFSFTPAWNWTCKDLLLQALRESQSYLVEDLERS [chain 1 R19A, chain 1 T21A] stands ~1.1 fold of negative control.
Still for that read-out and setting: under chain 1 AAKPGLHFIDQHRAALIARVTNVEWLLDALYGKVLTDEQYQAVRAEPTNPSKMRKLFSFTPAGAWTCKDLLLQALRESQSYLVEDLERS [chain 1 W63G, chain 1 N64A] stands ~1.2 fold of negative control.

The variants in another assay derive from B2. Briefly: M2H (mammalian two-hybrid, luciferase); HEK293T cells; GAL(DBD)-ASC^CARD with VP16-NLRP1^CARD; luciferase normalized to Renilla; parent: 3; read off a plot.
As for chain 1 DAPQLLHFVDQYREQLIARVTSVEVVLDKLHGQVLSAEQYRRVLAENTRPSQMRKLFSLSQSWDRKCKDGLYQALKETHPHLIMELWEKG [chain 1 Q37A, chain 1 E41R], the response was ~1.7 fold of negative control.
The same measure, in the same setting: under chain 1 DAPQLLHFVDQYREQLIARVTSVEVVLDKLHGQVLSQEQYERVLAENTRPSQMRKLFSLSQSGKRKCKDGLYQALKETHPHLIMELWEKG [chain 1 W63G, chain 1 D64K] stands ~0.97 fold of negative control.
On to chain 1 DAPQLLHFVDQYREQLIARVTSVRVVLKKLHGQVLSQEQYERVLAENTRPSQMRKLFSLSQSWDRKCKDGLYQALKETHPHLIMELWEKG [chain 1 E24R, chain 1 D28K], for which the response is ~0.77 fold of negative control.
In the case of chain 1 DAPQLLHFVDQYREQLIARVTSVEVVLDKLHGQVLSQEQYERVLAENTRPSQMRKLFSLSQSWDRKCKDGLYQALKETHPELIMELWEKG [chain 1 H81E], the response is ~0.98 fold of negative control.
The same measure, in the same setting: under chain 1 DAPQLLHFVDQYREQLIARVTSVEVVLDKLHGQVLSQEQYERVLAENTRPSQMAKLFSLSQSWDRKCKDGLYQALKETHPHLIMELWEKG [chain 1 R54A] stands ~1.5 fold of negative control.
Still for that read-out and setting: under chain 1 DAPQLLHFVDQYREQLIAAVTSVEVVLDKLHGQVLSQEQYERVLAENTRPSQMRKLFSLSQSWDRKCKDGLYQALKETHPHLIMELWEKG [chain 1 R19A] stands ~1.1 fold of negative control; under chain 1 DAPQLLHFVDQYREQLIAAVTSVEVVLDKLHGQVLSQEQYERVLAENTAPSQMRKLFSLSQSWDRKCKDGLYQALKETHPHLIMELWEKG [chain 1 R19A, chain 1 R49A], ~1.8 fold of negative control.
